T1: human DLL3 (UniProt Q9NYJ7 27-492)
T1 chain: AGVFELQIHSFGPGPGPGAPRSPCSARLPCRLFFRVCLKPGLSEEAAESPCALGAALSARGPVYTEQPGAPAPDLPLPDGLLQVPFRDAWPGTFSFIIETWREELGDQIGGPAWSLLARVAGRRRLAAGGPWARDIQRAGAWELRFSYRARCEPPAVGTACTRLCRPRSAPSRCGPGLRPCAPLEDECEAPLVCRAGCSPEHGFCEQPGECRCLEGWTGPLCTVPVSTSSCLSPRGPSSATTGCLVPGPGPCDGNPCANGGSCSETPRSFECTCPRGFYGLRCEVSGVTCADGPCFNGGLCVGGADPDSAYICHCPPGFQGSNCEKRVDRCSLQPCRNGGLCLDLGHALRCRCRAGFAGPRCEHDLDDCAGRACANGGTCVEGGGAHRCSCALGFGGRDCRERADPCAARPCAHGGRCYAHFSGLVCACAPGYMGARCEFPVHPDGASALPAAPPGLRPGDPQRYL

T2: rat DLL3 over-expressed on 293 cells (rat, UniProt O88671 33-589)
T2 construct: whole, on cells
T2 sequence (looked up): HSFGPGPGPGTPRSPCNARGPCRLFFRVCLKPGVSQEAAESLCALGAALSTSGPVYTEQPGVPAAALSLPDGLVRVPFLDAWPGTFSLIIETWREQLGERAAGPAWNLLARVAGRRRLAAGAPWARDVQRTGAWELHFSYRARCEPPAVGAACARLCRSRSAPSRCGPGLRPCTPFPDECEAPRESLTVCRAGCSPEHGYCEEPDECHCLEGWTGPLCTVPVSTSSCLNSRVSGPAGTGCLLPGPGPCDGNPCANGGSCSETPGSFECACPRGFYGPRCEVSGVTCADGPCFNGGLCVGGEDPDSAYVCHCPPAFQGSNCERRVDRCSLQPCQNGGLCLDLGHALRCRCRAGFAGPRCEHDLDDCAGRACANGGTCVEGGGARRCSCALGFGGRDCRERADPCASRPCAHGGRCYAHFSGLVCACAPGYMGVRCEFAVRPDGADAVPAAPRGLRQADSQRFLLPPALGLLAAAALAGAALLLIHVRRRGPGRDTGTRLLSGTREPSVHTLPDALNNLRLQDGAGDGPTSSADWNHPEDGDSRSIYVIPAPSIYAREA

T3: human DLL3 over-expressed on 293 cells (human, UniProt Q9NYJ7 27-618)
T3 construct: identical extracellular and transmembrane regions; also called hDLL3; Delta-like ligand 3
T3 sequence: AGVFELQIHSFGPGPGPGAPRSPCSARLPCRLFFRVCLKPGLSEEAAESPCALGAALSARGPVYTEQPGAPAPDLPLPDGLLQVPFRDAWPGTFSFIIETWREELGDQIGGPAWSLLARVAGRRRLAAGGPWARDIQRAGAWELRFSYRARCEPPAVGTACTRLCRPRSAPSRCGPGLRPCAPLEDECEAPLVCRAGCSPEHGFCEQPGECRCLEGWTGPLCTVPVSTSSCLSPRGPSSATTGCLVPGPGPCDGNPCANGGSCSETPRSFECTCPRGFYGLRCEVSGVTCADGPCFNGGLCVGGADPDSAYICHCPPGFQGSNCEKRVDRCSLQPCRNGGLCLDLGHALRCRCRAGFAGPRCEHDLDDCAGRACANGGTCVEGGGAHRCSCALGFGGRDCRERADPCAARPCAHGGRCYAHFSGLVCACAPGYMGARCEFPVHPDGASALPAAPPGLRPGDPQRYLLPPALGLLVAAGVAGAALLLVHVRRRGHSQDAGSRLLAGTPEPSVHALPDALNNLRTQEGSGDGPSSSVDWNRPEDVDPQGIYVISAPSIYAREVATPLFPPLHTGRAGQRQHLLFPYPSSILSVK

B1: SC16.65 (antibody, V domains shown)
VH: QVTLKESGPGILQPSQTLSLTCSFSGFSLSTSGMGVGWIRQPSGKGLEWLALIWWDDVKRYNPALKSRLTISKDASSSQVFLKIASVDTADTATYYCARIASYDYDVVYAMDYWGQGTSVSVSS
VL: QIVLTQSPALMSASPGEKVTMTCSVTSSVSYMYWYQQKPRSSPKPWIYLTSNLASGVPARFSGSGSGTSYSLTISSVEAEDAATYYCQQWRNNPFTFGSGTKVEIK
notes: murine mAb; V regions only
B2: SC16.13 (antibody, V domains shown)
VH: B1 VH with L52H, A75T, A101V, Y103F, Y105N, Y109S, S121T
VL: B1 VL with M11V, V25A, T26S, V77M, N92S, V103L
B3: SC16.15 (antibody, V domains shown)
VH: QVQLQQSGAELAKPGASVKMSCKASGYTFTRYWIHWIKQRPGQGLEWIGYINPTTVYTEFNQNFKDKATLTADKSSTTASMQLSSLTSEDSAVYYCARGGSNFFDYWGQGTTLTVSS
VL: DIQMTQSPASLAASVGETVAITCRASENIYYNLAWYQQKQGKSPQLLIYTANSLEDGVPSRFSGSGSGTQYSLKINSMQPEDSATYFCKQAYDVPPTFGGGTKLEIK
notes: murine mAb; V regions only
B4: SC16.25 (antibody, V domains shown)
VH: QVTLKESGPGILQPSQTLSLTCSFSGFSLSTSGMGVGWIRQPSGEGLEWLTDIWWDDNKYYNPSLKSRLTISKDTSSNQVFLNITSVDTADTATYYCARRVNYYYDPYYAMDYWGQGTSVTVSS
VL: QIVLTQSPAIMSASPGEKVTMTCSASSSVSYMHWYQQKSGTSPKRWIYDSSKLASGVPARFSGSGSGTSYSLTISSMEAEDAATYYCQQWSSNPLTFGAGTKLELK
notes: murine mAb; V regions only
B5: SC16.56 (antibody, V domains shown)
VH: QIQLVQSGPELKKPGETVKISCKASGYTFTNYGMNWVKQAPGKGLKWMAWINTYTGEPTYADDFKGRFAFSLETSASTASLQIINLKNEDTATYFCARIGDSSPSDYWGQGTTLTVSS
VL: SIVMTQTPKFLLVSAGDRVTITCKASQSVSNDVVWYQQKPGQSPKLLIYYASNRYTGVPDRFAGSGYGTDFSFTISTVQAEDLAVYFCQQDYTSPWTFGGGTKLEIR
notes: murine mAb; V regions only
B6: SC16.34 (antibody, V domains shown)
VH: B5 VH with K13R, A49G, E57D, S80Y, I84N, D101G, S102N, T113S
VL: B5 VL with V34A, T56S, A63T, S72T, T93S, R107K
notes: murine mAb; V regions only
B7: SC16.67 (antibody, V domains shown)
VH: EVQLVETGGGLVQPKGSLKLSCAVSAFTFTTYAMNWVRQAPGKGLEWVARIRNKSNNYATYYADSVKDRFTISRDDSQSMLYLQMNNLKIEDTAMYYCVFYYDYVYWGQGTLVTVSA
VL: QAVVTQESALTTSPGETVTLTCRSSTGAVTTSNYANWIQEKPDHLFTGLIGGTNNRAPGVPARFSGSLIGDKAALTITGAQTEDEAIYFCGLWYSNHLVFGGGTKLTVL
B8: SC16.8 (antibody, V domains shown)
VH: QAQLQQSGAELVRPGTSVKVSCKASGYAFTNYLIEWVKQRPGQGLEWIGVINPGTGGTNYNENFKGKATLTADKSSSTAYMQLSSLTSDDSAVYFCARSPYDYHEGAMDYWGQGTSVTVSS
VL: EIQMTQSPSSMSASLGDRITITCQATQDIVKNLNWYQQKPGKPPSFLIYYAIELAEGVPSRFSGSGSGSDYSLTISNLESEDFADYYCLQFYEFPFTFGAGTKLELK
notes: murine mAb; V regions only
B9: SC16.10 (antibody, V domains shown)
VH: QVTLKESGPGILQSSQTLSLTCSFSGFSLSTSGMGVGWIRQPSGKGLEWLAHIWWDDVKRYNPVLKSRLTISKDTSSSQVFLKIASVDTADTATYYCARLVDDLYYFDYWGQGTTLTVSS
VL: QIVLTQSPAIMSASLGERVTMTCTASSSVSSSYLHWYQQKPGSSPKLWIYSTSNLASGVPTRFSGSGSGTSYSLTISSMEAEDAATYYCHQYHRSPFTFGSGTKLEIK
notes: murine mAb; V regions only
B10: SC16.4 (antibody, V domains shown)
VH: QIQLVQSGPELKKPGETVKISCKASGYTFTDYSMHWVKQAPGKGLKWMGWINTETGEPGYADDFKGRFAFSLETSASTAYLQINNLKNEDTATYFCARYDGYAMDYWGQGTSVTVSS
VL: DIQMTQTTSSLSASLGDRVTISCRASQDISNYLNWYQQKPDGTVKLLIYYTSRLHSGVPSRFSGSGSGTDYSLTISNLELEDIATYFCQQGDMLPWTFGGGTKLEIK
notes: murine mAb; V regions only
B11: SC16.39 (antibody, V domains shown)
VH: EVKLEESGGGLVQFGGSMKLSCAASGFTFSDAWMDWVRQSPEKGLEWVAEIRNKANNHATYYPESVKGRFTISRDDSKSRVYLQMNNLRAEDTGIYYCTGYSSFAYWGQGTLVTVSA
VL: B10 VL with I29V, S30I, G68R, L80P, F87Y, G91Y, D92S, M93E, L94R, W96Y
B12: SC16.7 (antibody, V domains shown)
VH: EVQLQQSGPELVKPGASVKISCKASGYSFTGYKMHWVKQSHVKSLEWIGRINPYNGATSYNQNFKDKATLTVDKSSSTAYMDLHSLTSEDSAVYFCARGDYRYDWFAYWGQGTLVTVSA
VL: NIMMTQSPSSLAVSAGEKVTMSCKSSQSVLYSSNQKNYLAWYQQKPGQSPKLLIYWASTRESGVPDRFTGSGSGTDFTLTISTVQVEDLAVYYCHQYLSSWTFGGGTKLEIK
notes: murine mAb; V regions only

Positions count from the first letter of the chain named.

In one assay the target is T1, human DLL3. The assay can be described thus: SPR (Biacore). For orientation: SPR reads the build-up and loss of mass on a sensor chip optically.
The molecule B1 had a Kd of 0.9 nM.

For B2, binding was put at a Kd of 2 nM.

Turning to B3, the dissociation constant Kd is 0.5 nM.

B4 showed a Kd of 0.2 nM.

B5 registered an equilibrium dissociation constant (Kd) of 1 nM.

For the molecule B6, the Kd worked out at 0.2 nM.

A further assay has as its target T1, human DLL3. The assay can be described thus: BLI (ForteBio). On the technique in general: Biolayer interferometry detects binding as a change in optical thickness at a sensor tip.
B7 displayed a dissociation constant (Kd) of 0.5 nM.

B8 displayed a dissociation constant (Kd) of 0.5 nM.

For the molecule B9, the dissociation constant (Kd) was 4 nM.

Turning to B10, the Kd came out at 0.5 nM.

For the next assay, the target named is T1, human DLL3. As to the kind of experiment: BLI (ForteBio). This is another data set of the same source.
On to B11, for which the equilibrium dissociation constant (Kd) came to 1 nM.

The target in another assay is T2, rat DLL3 over-expressed on 293 cells. The assay can be described thus: flow cytometry, 293 cells over-expressing rat DLL3. The procedure: (§1) In addition to evaluating the exemplary modulators as set forth above, flow cytometry was performed in order to confirm that selected SC16 antibody modulators can immunospecifically associate with human DLL3 and to determine whether the same antibodies cross-react with cynomolgus, rat and/or murine DLL3. More particularly the exemplary murine antibodies were analyzed by flow cytometry using a FACSCanto II and 293 cells over-expressing murine, rat, cynomolgus or human DLL3. In some cases, exemplary murine modulators were analyzed by flow cytometry using a FACSCanto II and yeast cells displaying cynomolgus DLL3 using the methods described by Cochran et al. (J Immunol Methods. 287 (1-2):147-158 (2004).
In general terms: In flow cytometry, cells or beads pass a laser one at a time.
Consider B8, for which the binding result was “binds”.

As for B3, the binding result is on record as “binds”.

With B10, the binding result was “binds”.

For B5, the binding result is given as “binds”.

As for B6, the binding result is reported as “binds”.

In a further assay the target is T3, human DLL3 over-expressed on 293 cells. The assay can be described thus: flow cytometry, 293 cells over-expressing human DLL3. The procedure:
as §1
Take B1: the binding result is listed as “binds”.

B8: the binding result was “binds”.

With B3, the binding result is reported as “binds”.

As to B9, the binding result is listed as “binds”.

On to B12, for which the binding result is “binds”.

In the case of B4, the binding result is recorded as “binds”.

Turning to B10, the binding result is given as “binds”.

For B5, the binding result was “binds”.

Regarding B6, the binding result is on record as “binds”.

As usually defined, the Kd is the equilibrium constant for the complex coming apart. A higher Kd goes with weaker binding.

The values are drawn from patent US20160015828A1 (AbbVie / Abbott, published 2016).
